# Reference: IntAct's records for PubMed 22111578
# B1: ADP-ribosylation factor 5 (Mus musculus), P84084 (parent)
# chain: MGLTVSALFSRIFGKKQMRILMVGLDAAGKTTILYKLKLGEIVTTIPTIGFNVETVEYKNICFTVWDVGGQDKIRPLWRHYFQNTQGLIFVVDSNDRERVQESADELQKMLQEDELRDAVLLVFANKQDMPNAMPVSELTDKLGLQHLRSRTWYVQATCATQGTGLYDGLDWLSHELSKR
# B2: ADP-ribosylation factor 4 (Mus musculus), P61750 (parent)
# chain: MGLTISSLFSRLFGKKQMRILMVGLDAAGKTTILYKLKLGEIVTTIPTIGFNVETVEYKNICFTVWDVGGQDKIRPLWRHYFQNTQGLIFVVDSNDRERIQEGAAVLQKMLLEDELQDAVLLLFANKQDLPNAMAISEMTDKLGLQSLRNRTWYVQATCATQGTGLYEGLDWLSNELSKR
# Variants of: B1
# Details: with caps2_mouse Cadps2, Q8BYR5
row,effect of a mutation on the interaction,Variant
1,disrupting interaction,Q71L

# Variants of: B1
# Details: with caps2_mouse Cadps2, Q8BYR5
# Remark: another data set of the same source
# Target sequence in this assay (Q8BYR5 whole entry): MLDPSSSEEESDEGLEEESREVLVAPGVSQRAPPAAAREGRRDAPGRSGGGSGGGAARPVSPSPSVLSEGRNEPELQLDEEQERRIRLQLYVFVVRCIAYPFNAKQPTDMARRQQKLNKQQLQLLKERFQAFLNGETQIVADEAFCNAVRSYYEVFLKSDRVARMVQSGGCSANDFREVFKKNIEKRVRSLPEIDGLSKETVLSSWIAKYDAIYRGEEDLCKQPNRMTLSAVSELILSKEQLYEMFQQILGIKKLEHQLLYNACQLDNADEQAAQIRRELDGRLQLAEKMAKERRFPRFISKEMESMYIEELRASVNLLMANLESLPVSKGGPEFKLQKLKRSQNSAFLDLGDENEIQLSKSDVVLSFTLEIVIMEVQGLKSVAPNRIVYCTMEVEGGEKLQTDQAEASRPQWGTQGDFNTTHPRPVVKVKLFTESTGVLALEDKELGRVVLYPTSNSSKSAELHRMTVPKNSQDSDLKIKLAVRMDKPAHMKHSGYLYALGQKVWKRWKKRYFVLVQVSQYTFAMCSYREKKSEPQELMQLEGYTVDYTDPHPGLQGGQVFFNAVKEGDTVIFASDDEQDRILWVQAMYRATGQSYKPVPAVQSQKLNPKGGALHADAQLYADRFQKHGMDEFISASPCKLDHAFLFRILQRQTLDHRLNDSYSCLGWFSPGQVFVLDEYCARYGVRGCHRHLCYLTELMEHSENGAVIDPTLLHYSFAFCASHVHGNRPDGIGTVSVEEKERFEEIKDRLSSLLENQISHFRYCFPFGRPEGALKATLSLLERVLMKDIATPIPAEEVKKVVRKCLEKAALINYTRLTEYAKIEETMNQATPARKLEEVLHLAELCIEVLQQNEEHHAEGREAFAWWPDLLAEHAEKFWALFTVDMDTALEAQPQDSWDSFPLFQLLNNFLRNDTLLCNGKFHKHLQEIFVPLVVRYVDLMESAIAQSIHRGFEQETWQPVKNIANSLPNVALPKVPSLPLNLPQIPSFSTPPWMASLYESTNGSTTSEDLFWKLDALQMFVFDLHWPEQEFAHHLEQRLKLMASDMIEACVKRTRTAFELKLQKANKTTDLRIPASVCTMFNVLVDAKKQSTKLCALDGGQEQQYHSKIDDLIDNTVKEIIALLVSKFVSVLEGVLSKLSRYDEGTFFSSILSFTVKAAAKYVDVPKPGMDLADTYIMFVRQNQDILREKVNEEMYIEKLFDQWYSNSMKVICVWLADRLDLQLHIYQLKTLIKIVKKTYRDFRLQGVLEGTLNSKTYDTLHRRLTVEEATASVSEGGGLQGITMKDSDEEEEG
row,effect of a mutation on the interaction,Variant
1,disrupting interaction,S6A

# Variants of: B1
# Details: with caps2_mouse Cadps2, Q8BYR5
# Remark: another data set of the same source
# Target sequence in this assay (Q8BYR5 whole entry): as above
row,effect of a mutation on the interaction,Variant
1,increasing interaction,T31N

# Variants of: B2
# Details: with caps2_mouse Cadps2, Q8BYR5
# Target sequence in this assay (Q8BYR5 whole entry): as above
row,effect of a mutation on the interaction,Variant
1,disrupting interaction,Q71L

# Variants of: B2
# Details: with caps2_mouse Cadps2, Q8BYR5
# Remark: another data set of the same source
# Target sequence in this assay (Q8BYR5 whole entry): as above
row,effect of a mutation on the interaction,Variant
1,increasing interaction,T31N
